Source: US20260337263 (published 2026)

Target: T1, soluble mesothelin (human, UniProt Q13421)
T1 chain: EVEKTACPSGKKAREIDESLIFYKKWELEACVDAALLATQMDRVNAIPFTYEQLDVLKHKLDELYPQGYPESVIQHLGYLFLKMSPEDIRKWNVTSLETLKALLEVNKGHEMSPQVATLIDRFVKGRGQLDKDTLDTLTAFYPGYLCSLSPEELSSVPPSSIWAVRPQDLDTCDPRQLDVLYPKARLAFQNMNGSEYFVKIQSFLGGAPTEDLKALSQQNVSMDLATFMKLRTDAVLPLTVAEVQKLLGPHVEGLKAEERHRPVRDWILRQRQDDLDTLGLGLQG
Experiment: ELISA

B1: Gly1-2-H4 (antibody, V domains shown)
VH: QVQLVQSGAEVKKPGSSVKVSCKSSGGTFSSDTINWVRQAPGQGLEWMGWINPNSGGTNYAQKFQGWVTMTRDTSISTAYMELSRLRSDDTAVYYCARESALGGSYPLSFWGQGTLVTVSS
VL: ETTLTQSPGTLSLSPGERATLSCRASQSVSSSYLAWYQQKPGQAPRLLIYGASSRATGIPDRFSGSGSGTDFTLTISRLEPEDSATYYCLQDDSYPLTFGQGTKVEIK
binding result: no binding
